Here are results for 2 substances from patent US20220259306A1.

The assay deals with hFc-tagged NKG2A/CD94 protein (NKG2A/CD94-hFc), immunogen A (human) (UniProt P26715). In words: ELISA on NKG2A/CD94-hFc protein (immunogen A), OD 450 nm.

The term EC50 (read off the curve) denotes the concentration giving half of the maximal effect. Read a high EC50 (read off the curve) as a less potent agent.

hFc-tagged NKG2A/CD94 protein (NKG2A/CD94-hFc), immunogen A (human), sequence (P26715 94-233 limits assumed, chain 1 of 2): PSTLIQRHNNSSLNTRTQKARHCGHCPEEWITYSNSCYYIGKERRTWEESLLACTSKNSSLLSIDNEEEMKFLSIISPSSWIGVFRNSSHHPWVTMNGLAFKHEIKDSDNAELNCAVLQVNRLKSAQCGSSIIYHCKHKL
hFc-tagged NKG2A/CD94 protein (NKG2A/CD94-hFc), immunogen A (human), sequence (chain, as listed by the source limits assumed, chain 2 of 2): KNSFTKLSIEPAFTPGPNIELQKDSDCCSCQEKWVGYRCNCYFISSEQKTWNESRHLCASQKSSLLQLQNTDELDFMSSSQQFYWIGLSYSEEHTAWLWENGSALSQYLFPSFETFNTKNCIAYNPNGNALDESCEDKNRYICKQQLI

As to control antibody-1, the EC50 (read off the curve) stood at 0.06 nM. For control antibody-2 the value was 0.1 nM.
